Series [1] deals with T1, GST-Xl-dsRBD (XlrbpA dsRBD2) (Xenopus laevis) (UniProt Q91836).
T1 sequence: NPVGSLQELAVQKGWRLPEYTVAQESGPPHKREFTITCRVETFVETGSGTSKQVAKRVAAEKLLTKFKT
In words: EMSA. The conditions noted are these: scale: fold higher affinity than P1. (In EMSA bound probe runs differently from free probe, usually more slowly.)

For series [2], the target named is T2, GST-Xl-dsRBD (XlrbpA dsRBD2) (Xenopus laevis, UniProt Q91836 112-180).
T2 sequence: T1 sequence
In words: EMSA.

The molecule 30-bp dsRNA yielded a binding signal in series [1] of 30.
Molecule 50-bp dsRNA yielded a binding signal in series [1] of 30.
On the same count and under the same terms, the result for 70-bp dsRNA reads 30; that for 130-bp dsRNA, 30.

B1: 21blunt (dsRNA)
RNA 1: AAGUCACAUUGCCCAAGUCUC
RNA 2: GAGACUUGGGCAAUGUGACUU
With B1, the binding result in series [2] is recorded as “binds”.

Source of the values: paper PMC3753931.
